According to paper PMC3427744:
pKd: −log10 of the molar value.

Columns and labels:
commercial rituximab = test: SPR
[1] = target: non-fucosylated G2 glycoform of rituximab (10); test: SPR

Substance | pKd (commercial rituximab) | pKd [1]
FcγRIIIa-F158 (from UniProt P08637 17-254) (receptor) | 5.98 | 6.91
FcγRIIb (from UniProt P31994 43-310) (receptor) | 5.70 | –
